Marks after values point to notes of the source that are not given here.
What was measured:
PIGF^+/+ mice = assay: Matrigel assay, PIGF+/+ mice; type: in vivo, mouse; conditions: subcutaneous matrigel with 100 ng/ml factor, seven days, n=15
Source text: (§1) Since VEGF plays a role in the above-mentioned phenotypes of angiogenesis, arteriogenesis and permeability, we investigated whether PIGF determined the responsiveness to VEGF. Subcutaneous implantation of matrigel (A. Passaniti et al., 1992, Lab. Invest. 67, 519-528) supplemented with VEGF165 (VEGF165) induced a strong angiogenic response in PIGF^+/+ but not in PIGF^−/− mice (hemoglobin content: 0.28±0.02 g/dl in PIGF^+/+ mice versus 0.02±0.02 g/dl in PIGF^−/− mice; n=15; p<0.05).
(§2) In contrast, basic fibroblast growth factor (bFGF) induced a similar angiogenic response in both genotypes (hemoglobin content: 0.28±0.02 g/dl in PIGF^+/+ mice versus 0.25±0.02 g/dl in PIGF^−/− mice; n=15; p=NS). These observations were confirmed by histological analysis and immunostaining for endothelial factor VIII-related antigen.
(§3) Matrigel assay: Ingrowth of capillaries in matrigel was performed as described (A. Passaniti et al., 1992, Lab. Invest. 67, 519-528). […] After seven days, the matrigel pellet with the neovessels was dissected for analysis of neovascularization: one part was homogenized to determine the hemoglobin content determined using Drabkin's reagent (Sigma, St. Quentin Fallavier, France), whereas the other part was fixed in 1% paraformaldehyde for histological analysis.

[1] = tested on: PIGF^+/+ and PIGF^−/− smooth muscle cells; assay: Smooth muscle cell migration; type: cell-based, mouse
Procedure: (§4) The reduced response of PIGF^−/− endothelial cells to VEGF was confirmed using cultured primary PIGF^−/− endothelial cells. […] Thus, PIGF determines and synergistically amplifies the response to VEGF.
(§5) Endothelial and smooth muscle cell culture: In order to obtain mouse capillary endothelial cells, anesthetized mice were injected s.c. with 500 μl of ice-cold matrigel containing bFGF (100 ng/ml) and heparin (100 μg/ml). After seven days, the matrigel pellet was dissected and enzymatically dispersed using 0.1% type II collagenase (Sigma, St. Louis, Mo.). Mouse endothelial cells were routinely cultured in T75 flasks coated with 0.1% gelatin in M131 medium supplemented with 5% MVGS (Gibco-BRL). Smooth muscle cells from mouse aorta were harvested and cultured as described (J. M. Herbert et al., 1997, FEBS Lett. 413, 401-404). Before stimulation, cells were starved in medium with 0.5% serum for 24 hours, after which they were stimulated with human VEGF165 and/or murine PIGF, or bFGF (all from R&D, Abingdon, UK) for 24 hours before analysis of the total cell number (proliferation) or the number of cells migrated after scrape-wounding (migration).

PIGF^−/− mice = assay: Matrigel assay, PIGF-/- mice; type: in vivo, mouse; conditions: subcutaneous matrigel with 100 ng/ml factor, seven days, n=15
Source text: as §1, §2, §3

[2] = tested on: PLGF^−/− endothelial cells; assay: Endothelial proliferation, PLGF-/- cells; type: cell-based, mouse
Source text: (§6) Proliferation and survival of endothelial cells in response to VEGF were studied. […] PIGF was also found to modulate the mitogenic response to VEGF of smooth muscle cells, known to express VEGFR-1 and VEGFR-2 (C. L. Grosskreutz et al., 1999, Microvasc. Res. 58, 128-136). […] Thus, PIGF affected endothelial and smooth muscle cells only when they were stimulated with VEGF.
(§7) The data represent the mean±SD of nine to twelve experiments. *: p<0.05 versus control (vehicle). None of the antibodies affected baseline endothelial proliferation in the absence of VEGF (not shown). Ab: polyclonal antiserum; MoAb: monoclonal antibodies; bFGF: basic fibroblast growth factor.
as §5, with “Before stimulation, cells were starved in medium with 0.5% serum for 24 hours, after which they were stimulated with human VEGF165 and/or murine PIGF, or bFGF (all from R&D, Abingdon, UK) for 24 hours before analysis of the total cell number (proliferation) or the number of cells migrated after scrape-wounding (migration).” left out

[3] = tested on: PIGF^+/+ and PIGF^−/− endothelial cells; assay: Endothelial cell migration (chemotaxis); type: cell-based, mouse; conditions: for chemotaxis of endothelial cells: 100 ng/ml (VEGF165, PIGF), both genotypes
Procedure: as §4, §5

[4] = tested on: PLGF^+/+ endothelial cells; assay: Endothelial proliferation, PLGF+/+ cells; type: cell-based, mouse
Source text: as §6, §7
as §5, with “Before stimulation, cells were starved in medium with 0.5% serum for 24 hours, after which they were stimulated with human VEGF165 and/or murine PIGF, or bFGF (all from R&D, Abingdon, UK) for 24 hours before analysis of the total cell number (proliferation) or the number of cells migrated after scrape-wounding (migration).” left out

[5] = tested on: PIGF^+/+ and PIGF^−/− smooth muscle cells; assay: Smooth muscle cell proliferation; type: cell-based, mouse
Source text: as §6, §5

PIGF^−/− fibroblasts = assay: VEGF production by PIGF-/- fibroblasts; type: cell-based; conditions: 100 ng/ml for 48 hours
Procedure: (§8) Expression of VEGF by PIGF^−/− fibroblasts was increased by PIGF (VEGF production per 10^6 cells/ml/24 hours: 180±10 pg after treatment with vehicle versus 440±10 pg after treatment with 100 ng/ml PIGF for 48 hours; p<0.05 versus vehicle). Similar results were obtained for PIGF^+/+ fibroblasts (VEGF production per 10^6 cells/ml/24 hours: 200±8 pg after treatment with vehicle versus 430±5 pg after treatment with 100 ng/ml PIGF for 48 hours; p<0.05 versus vehicle).

[6] = tested on: PIGF^+/+ and PIGF^−/− endothelial cells; assay: Endothelial cell survival (apoptosis by serum deprivation or TNF-α); type: cell-based, mouse
Source text: as §6, §5

PIGF^+/+ fibroblasts = assay: VEGF production by PIGF+/+ fibroblasts; type: cell-based; conditions: 100 ng/ml for 48 hours
Procedure: as §8

[7] = PIGF added to VEGF165, PIGF^−/− endothelial cells

## bFGF: basic fibroblast growth factor
PIGF^+/+ mice
  hemoglobin content (angiogenic response in matrigel): 0.28 ± 0.02 g/dL
[1]
  migration of smooth muscle cells: stimulated smooth muscle cells of both genotypes
PIGF^−/− mice
  hemoglobin content (angiogenic response in matrigel): 0.25 ± 0.02 g/dL
[2]; 50 ng/ml
  Endothelial proliferation: 35 ± 5*
[3]
  chemotaxis of endothelial cells: both genotypes responded comparably
[4]; 50 ng/ml
  Endothelial proliferation: 35 ± 2*
[5]
  smooth muscle cell proliferation: comparable responses

B1: PLGF: murine Placental Growth Factor (R&D) (protein, UniProt P49764 19-158, looked up)
Placenta growth factor: VHSQGALSAGNNSTEVEVVPFNEVWGRSYCRPMEKLVYILDEYPDEVSHIFSPSCVLLSRCSGCCGDEGLHCVPIKTANITMQILKIPPNRDPHFYVEMTFSQDVLCECRPILETTKAERRKTKGKRKRSRNSQTEEPHP
[1]
  migration of smooth muscle cells: rescued the impaired smooth muscle cell response to VEGF
PIGF^−/− fibroblasts
  VEGF production per 10^6 cells/ml/24 hours: 440±10 pg
[6]; [7]
  proliferation and survival response to VEGF165: rescued the impaired proliferation and survival response
[6]; factor alone, endothelial cells of either genotype
  mitogenic and anti-apoptotic activity: not mitogenic nor anti-apoptotic
PIGF^+/+ fibroblasts
  VEGF production per 10^6 cells/ml/24 hours: 430±5 pg
[2]; 100 ng/ml of each factor
  Endothelial proliferation: 11 ± 1
[3]
  chemotaxis of endothelial cells: not chemotactic for endothelial cells of either genotype
[3]; [7]
  migration of endothelial cells in response to VEGF165: completely restored the impaired migration
[4]; 100 ng/ml of each factor
  Endothelial proliferation: 11 ± 1
[5]
  smooth muscle cell proliferation: ineffective by itself, restored the responsiveness of PIGF^−/− cells to VEGF
